Results: paper PMC4109836, “Analysis of the co-operative interaction between the allosterically regulated proteins GK and GKRP using tryptophan fluorescence” (Biochemical Journal, 2014)
Residue numbers refer to the chain shown, from its start. Names may count otherwise. Where two headings read alike, the source gives them in different places.

Experiments:
GK-T65W/W99R/W167F/W257F = target: T1, GK-T65W/W99R/W167F/W257F (Homo sapiens, UniProt P35557, T65W/W167F/W257F/W99R); experiment: GKA and glucose binding by GK-T65W/W99R/W167F/W257F measured by TF; conditions: 25°C
T1 construct: GST (cleaved yes); made in house; host or cells: Escherichia coli
T1 sequence (P35557 1-465 T65W/W99R/W167F/W257F): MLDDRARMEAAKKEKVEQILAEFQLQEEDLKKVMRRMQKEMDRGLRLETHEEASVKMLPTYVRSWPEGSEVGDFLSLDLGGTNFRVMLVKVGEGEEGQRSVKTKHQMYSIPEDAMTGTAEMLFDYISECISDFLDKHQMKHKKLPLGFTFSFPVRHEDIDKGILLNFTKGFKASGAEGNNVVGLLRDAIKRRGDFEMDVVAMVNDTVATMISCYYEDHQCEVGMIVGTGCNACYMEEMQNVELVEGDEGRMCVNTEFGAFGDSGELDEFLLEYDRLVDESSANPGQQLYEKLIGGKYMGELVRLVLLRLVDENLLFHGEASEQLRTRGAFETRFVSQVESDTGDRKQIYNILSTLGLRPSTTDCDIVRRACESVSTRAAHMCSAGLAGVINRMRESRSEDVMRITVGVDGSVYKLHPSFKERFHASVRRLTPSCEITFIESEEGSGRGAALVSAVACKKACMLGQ

GKRP-P446L = target: T2, GKRP-P446L (Homo sapiens, UniProt P35557+Q14397, P446L/W167F/W257F/W99R); experiment: Titration of GKRP-P446L with GK-W99R/W167F/W257F (GK–GKRP complex assembly) by TF; type: binding; parameters: ΔF: scale not given here; conditions: for Kd: read-out: S0.5 of GK
T2 construct: FLAG; GST (cleaved yes); made in house; host or cells: Escherichia coli
T2 sequence (Q14397 1-625 P446L): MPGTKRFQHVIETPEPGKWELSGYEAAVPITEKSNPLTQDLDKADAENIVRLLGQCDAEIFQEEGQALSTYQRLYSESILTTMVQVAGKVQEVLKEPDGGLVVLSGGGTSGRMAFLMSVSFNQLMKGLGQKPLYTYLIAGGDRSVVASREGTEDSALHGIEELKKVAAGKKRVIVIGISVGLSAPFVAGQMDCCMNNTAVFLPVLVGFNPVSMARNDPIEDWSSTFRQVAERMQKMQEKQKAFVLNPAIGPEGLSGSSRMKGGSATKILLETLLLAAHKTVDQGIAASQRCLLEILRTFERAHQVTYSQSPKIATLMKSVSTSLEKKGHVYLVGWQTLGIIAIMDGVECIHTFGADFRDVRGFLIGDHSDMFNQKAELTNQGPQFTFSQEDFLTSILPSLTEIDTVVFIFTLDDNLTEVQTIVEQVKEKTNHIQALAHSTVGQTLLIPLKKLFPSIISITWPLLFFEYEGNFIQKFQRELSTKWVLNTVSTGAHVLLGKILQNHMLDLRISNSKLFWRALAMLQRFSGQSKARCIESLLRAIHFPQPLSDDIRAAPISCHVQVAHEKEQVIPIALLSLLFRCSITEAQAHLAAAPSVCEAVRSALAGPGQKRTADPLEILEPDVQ
T2 sequence (P35557 1-465 W99R/W167F/W257F): T1 sequence (P35557 1-465 T65W/W99R/W167F/W257F) with W65T
Description: Spectra were measured with a Fluorolog-3-21 Jobin-Yvon Spex Instrument SA equipped with a 450 W Xenon lamp for excitation and a cooled R2658P Hamamatsu photomultiplier tube for detection. For all measurements, 90° geometry was employed and 295 nm excitation wavelengths were used to observe fluorescence emission in the 300–500 nm range. For TF, spectra slit width was set to provide a bandpath of 3 nm for excitation and 3 nm for emission. Spectra were corrected for instrumental response using Spex instrument software. A thermostatically controlled cell holder maintained sample temperature at 20°C. A thermocoupler was used to measure sample temperature. The buffer used contained 20 mM phosphate, 50 mM KCl, 1 mM EDTA and 1 mM DTT (pH 7.2).
Fluorescence data were obtained via the stepwise addition of the appropriate amount of non-fluorescent GK-W99R/W167F/W257F to GKRP in a fluorescence cuvette. […] The change in GKRP protein fluorescence during titration was also measured using time-dependent scans. A manual procedure was used such that a typical titration with 10–12 additions required 20–25 min to perform. The same buffer as described above was routinely used unless stated otherwise. The bandpath was 0.5 nm at 295 nm for excitation and 12 nm at 340 nm for emission. […] For some graphical presentations the linear form of the Hill equation was used: log[F/(Fsat−F)]=H log x−H log KD [46].

[1] = D-glucose titration in the presence of GKA (20 μM)
[2] = GK titration with 20 μM GKA, 20°C
[3] = GK titration with 500 μM F1P, 20°C
[4] = GK titration with 500 μM F6P, sigmoidal fit, 20°C
[5] = GK titration with 500 μM F6P, simple saturation fit (H = 1)
[6] = GK titration with 100 mM D-glucose and 20 μM GKA, 20°C
[7] = GK titration with 100 mM D-glucose and 500 μM F1P, 20°C
[8] = GK titration with 100 mM D-glucose and 500 μM F6P, 20°C
[9] = GK titration with 100 mM D-glucose, 20°C
[10] = GK titration, no further agent, sigmoidal fit, 20°C
[11] = GK titration, no further agent, simple saturation fit (H = 1)

An H (GK-T65W/W99R/W167F/W257F; [1]) of 1, a Kd (GK-T65W/W99R/W167F/W257F; [1]) of 740 µM and an H (GK-T65W/W99R/W167F/W257F; D-glucose titration) of 1 were found for `OC[C@H]1OC(O)[C@H](O)[C@@H](O)[C@@H]1O` (stereo partly drawn) [D-Glucose, D-glucose] in this work. The Kd (GK-T65W/W99R/W167F/W257F; D-glucose titration) was 4600 µM.

B1: GK-W99R/W167F/W257F: tryptophan residue-free, non-fluorescent recombinant human β-cell GK made for the present study (protein)
chain: T1 sequence (P35557 1-465 T65W/W99R/W167F/W257F) with W65T
modifications: left off: GST, end not stated, cleaved
notes: tryptophan residue-free, non-fluorescent recombinant human β-cell GK made for the present study
An H (GKRP-P446L; [2]) of 2.17, a ΔF (GKRP-P446L; [2]) of 0.43 and a Kd (GKRP-P446L; [2]) of 2.59 µM were found for B1 in this work. For the same molecule, the H (GKRP-P446L; [3]) was 2.84, the ΔF (GKRP-P446L; [3]) was 0.41 and the Kd (GKRP-P446L; [3]) was 2.95 µM. The H (GKRP-P446L; [4]) was 1.31, the ΔF (GKRP-P446L; [4]) was 0.44 and the Kd (GKRP-P446L; [4]) was 1.66 µM. For the same molecule, the H (GKRP-P446L; GK titration with 500 μM F6P, simple saturation fit) was 1, the ΔF (GKRP-P446L; [5]) was 0.55 and the Kd (GKRP-P446L; [5]) was 2.45 µM. It also gave an H (GKRP-P446L; [6]) of 2.68, a ΔF (GKRP-P446L; [6]) of 0.42 and a Kd (GKRP-P446L; [6]) of 3.55 µM. It also gave an H (GKRP-P446L; [7]) of 2.77, a ΔF (GKRP-P446L; [7]) of 0.44 and a Kd (GKRP-P446L; [7]) of 2.97 µM. The H (GKRP-P446L; [8]) was 2.45, the ΔF (GKRP-P446L; [8]) was 0.42 and the Kd (GKRP-P446L; [8]) was 2.84 µM. The H (GKRP-P446L; [9]) was 2.94, the ΔF (GKRP-P446L; [9]) was 0.43 and the Kd (GKRP-P446L; [9]) was 3.38 µM. For the same molecule, the H (GKRP-P446L; [10]) was 1.86, the ΔF (GKRP-P446L; [10]) was 0.44 and the Kd (GKRP-P446L; [10]) was 2.05 µM. It also gave an H (GKRP-P446L; GK titration, no further agent, simple saturation fit) of 1, a ΔF (GKRP-P446L; [11]) of 0.82 and a Kd (GKRP-P446L; [11]) of 5.23 µM. The “maximal ΔTF value of GKRP-P446L” value (GKRP-P446L; range under all conditions tested) was 0.41–0.44 and the “increase of the TF of GKRP-P446L” value (GKRP-P446L; saturating GK (5 μM), 0.3 μM GKRP) was 44%.
